Consider eleven molecules from patent US20240245805A1 (Orna Therapeutics, Inc., priority 2020, published 2024).

For orientation: pKa means the negative logarithm of the acid dissociation constant.

The conditions of data set [1]: cited from earlier work.
The next data set has as its system HEK293 cells. It is filed as cell-based, human. The conditions noted are these: circular RNA encoding Gluc with the listed IRES (UTR truncated to 675 nt) transfected into HEK293 cells; supernatant after 24 hours.
Where [2] appears, read: Table 2, lipids of Formula (II).

Where two headings read alike, the source gives them in different places.

As for `CCCCCCCCC(=O)N(CCCN(C)C)C(CCCCCCCCC(=O)OCC(CCCC)CCCC)CCCCCCCCC(=O)OCC(CCCC)CCCCCC` (centres unmarked) [II-9], the pKa in data set [1] (setting [2]) is on record as 6.27.
Regarding `CCCCCCCCC(CCCC)COC(=O)CCCCCCCCC(CCCCCCCCC(=O)OCC(CCCC)CCCCCC)N(CCCN(C)C)C(=O)C(CC)CCCCC` (centres unmarked) [II-35], the pKa in data set [1] (setting [2]) is on record as 5.97.
Regarding `CCCCCCCCC(CCCCCC)CCCOC(=O)CCCCCN(CCCCCC(=O)OCC(CCCCCC)CCCCCCCC)CCN(C)C` (centres unmarked) [Lipid I-22], the pKa in data set [1] (Table 1, lipids of Formula I) is 6.53.

B1: PSIV (2x mut for Xbal) (nucleic acid)
DNA: GCAAAATGGGTACGTAGTTAACCACTGCGTATCAGGATTGCAGGCCACGAAGGGTATTTGCATATCTTTCTATGCGGTATTACGGCTTAAAACCCGTTGTATCTTGTTGTTTGACTGCCTGTATCACTAGTGGCCATTTTATTTAGGTTAGAGACCCCTGATAGTAGGAGAGTTACAAACTCTTTAAAAATTGTTGACCCCGGAAAAGATGGTGACCCCTGTAAGTAGTTGATCAAGAAGATCTATGCGCTGGCATAGTAATCCAGTGTTTCCTGTTTTAGGATGACCTCTGAAAGTAGATGACCGTGGAAAGTCACGTAGTGCCCCAATAAGCACGTTTGGGCAGCGTGCGCTATCACAAGGCTTGATCTCCGAGGAGCCCCTTGTTTTAGCTGGCTGGAAGCCAATGATCTTAAGTAGATAAGTGCTGTTGCTTGTAGTTCAACAGAAAGCTTTGAGTACGTCTTTCTTGCGAGAAAGAACACATGCATTCTTATGCTCTCAATTCTATTATTTTTATTTTGGGCGAAAGGAAAGCTCTCACGCGAGTACGAATAGCCAACCCTTTAT
modifications: lipid formulation
For B1, in the data set with HEK293 cells, the “Expression (luminescence from secreted Gluc protein)” value (shortened to “Expression”) was found to be 9.70E+04.

B2: EV 30 (nucleic acid, listed as Enterovirus sp.)
chain: AAGCAAGGCAAACCTGACCAATAGTAGGTGTGGCACACCAGCCGCATTTTGGTCAAGCACTTCTGTTTCCCCGGACCGAGTATCAATAAGCTGCTCACGCGGCTGAAGGAGAAACCGTTCGTTACCCGACCAGCTACTTCGAGAAACCTAGTAACACTATGAACGTTGCGGAGTGTTTCGTTCAGCACTTCCCCCGTGTAGATCAGGTCGATGAGTCACCGCATTCCTCACGGGTGACCGTGGCGGTGGCTGCGTTGGCGGCCTGCCTACGGGTTCGCCCGTAGGACGCTCTAATACCGACATGGTGTGAAGAGTCCATTGAGCTAGCTGGTAGTCCTCCGGCCCCTGAATGCGGCTAATCCTAACTGCGGAGCAGGTGCTCACAGACCAGTGAGTAGCCTGTCGTAACGGGCAACTCTGCAGCGGAACCGACTACTTTGGGTGTTTTTCCTTTTTTCTTCTCTTATATTGGCTGCTTATGGTGACAATTAAAGAATTGTTACCATATAGCTATTGGATTGGCCATCCGGTGACGAGCAGAGCCATTGTTTACCTCTTTGTTGGATTTGTACCTTTGAACCACAAAGTCTTGAATACCATTCATCTCATTTTAAAGTTCAACTCAGCTAAAAGAAA
modifications: lipid formulation
As to B2, in the data set on HEK293 cells, the “Expression” value amounted to 5.48E+06.

B3: EV C102 (nucleic acid, listed as Enterovirus sp.)
chain: CTTTGTACGCCTGTTTTACATCCCCTCCCCCACGTAACTTTAGAAGCAATTCAACAAGTTCAATAGAGGGGGTACAAACCAGTATCACCACGAACAAGCACTTCTGTTTCCCCGGTGATTTTACATAAGCTGTGCCCACGGCTGAAAGTGAATGATCCGTTACCCGCTCGAGTACTTCGAAAAGCCTAGTATCGCTTTGGGATCTTCGACGCGTTGCGCTCAGCACTCTACCCCGAGTGTAGCTTAGGCTGATGAGTCTGGGCATTCCCCATCGGCGACGATGGCCCAGGCTGCGTTGGCGGCCTACCCATGGCTAACGCCATGGGACGCTAGTTGTGAACAAGGTGTGAAGAGCCTATTGAGCTACTCGAGAGTCCTCCGGCCCCTGAATGCGGCTAATCCCAACCACGGATCAGGTGCCTCCAACCCAGGAGGTGGCCTGTCGTAACGCGCAAGTCTGTGGCGGAACCGACTACTTTGGGTGTCCGTGTTTCCTTTTATCTTTTAAATGGCTGCTTATGGTGACAATCATAGATTGTTATCATAAAGCGAATTGGATTGGCCATCCGGTGAAATACAAACACATTATTTACTTGTTTGTTGGATTTACTCCGCTCACACAGCTTACTCCTAAGATAATATTTATTGTATTGCTGGTAAGGAGACACTATTATA
modifications: lipid formulation
Turning to B3, the “Expression” value in the data set with HEK293 cells amounted to 8.85E+07.

B4: EV K (nucleic acid)
chain: TCAGCCTGACGCAAGTGCCTCCATTGGAGTCTCTCCAAGCCCTCCGGGGCTTGGAGGGCGCCGACCCCCTGCCTAGGGGGAGCCCACGACACGGCTGGAGTCCATTGGCACACCGCAGCCACGATTCAAGCCAGAATTGAAAGCGGGAAGCACTTCTGTCTCCCCGGTGTGGATCATACGCTGTACCCACGGCGAAAAGTGAAGCATCGTTACCCGACTCGGTACTTCGAGAAGCCCAGTACAGTTGTGGATCTCTGCAGGGTATACGCTCAGCGTGACCCCTACGTAGTTCCTTGAGATGGCTGAGAGAACACCCCACGGGCGACCGTGTCTCTCGGCGCGTGGCTCAAGGCCGGGCCTTCAGTGGCTCGGTGCCTTGCAGAGTGAAGCCTCCGAACAGCCTATTGAGCTACCGTTTAGCCTCCGCCCTCTTGAATGCGGCTAATCCTAACCATGGAGCGCCCGCCCACAGTCCAGTGGGTAGAGCGTCGTAACGCGCAAGTCCGTGGCGGAACCGACTACTTTAGAGTGGCGTGTTTCCAATTTATCCTTTATAAAGTTGCTTATGGTGACACCACAAGAGATCCACGATTTCTTGTTTCTTATCACTGAGACACAAGTCATATTCATCAATCTTTATTGCGGAATTAACTTGGTGCGTCCAAACACATCAGC
modifications: lipid formulation; Enterovirus K
With B4, the “Expression” value in the data set on HEK293 cells turned out to be 7.52E+07.

B5: EV D94 (nucleic acid, listed as Enterovirus sp.)
chain: CGTGGCGGCCAGTACTCTGGTATCACGGTACCTTTGTACGCCTGTTTTATATCCCCTTCCCCCGCAACTTAGAAGAAAACAAATCAAGTTCACTAGGAGGGGGTACAAACCAGTACCACCACGAACAAGCACTTCTGTTTCCCCGGTGATGTCGTATAGACTGTAACCACGGTTGAAAACGATTGATCCGTTATCCGCTCTTGTACTTCGAAAAGCCCAGTATCACCTTGGAATCTTCGATGCGTTGCGCTCAGCACTCAACCCCAGAGTGTAGCTTAGGTCGATGAGTCTGGACACTCCTCACCGGCGACGGTGGTCCAGGCTGCGTTGGCGGCCTACCTGTGGTCCAAAGCCACAGGACGCTAGTTGTGAACAAGGTGTGAAGAGCCTATTGAGCTACAAGAGAATCCTCCGGCCCCTGAATGCGGCTAATCCTAACCACGGAGCAAGGGTACACAAACCAGTGTATATCTTGTCGTAACGCGCAAGTCTGTGGCGGAACCGACTACTTTGGGTGTCCGTGTTTCCTTTTGTTTTTATCATGGCTGCTTATGGTGACAATCTAAGATTGTTATCATATAGCTGTTGGATTGGCCATCCGGTAATTTATTGAGATTTGAGCATTTGCTTGTTTCTTCAACAATTTCACCTATTCATTGCATTTCAGCAGTCAAA
modifications: lipid formulation
Regarding B5, the “Expression” value with HEK293 cells stood at 9.25E+07.

B6: EV I (nucleic acid)
chain: TTAGTACTTTCTCACGGGGATAGTGGTATCCCTCCCTAGTAATTTAGAAGACTTGAAAAACCGACCAATAGGCACCTCGCATCCAGCGGGGTAAAGGTCAAGCACTTCTGTTTCCCCGGGTCGAGTAGCGATAGACTGTGCCCACGGTCGAAGGTGAAACAACCCGTTATCCGACTTTGTACTTCGGGAAGCCTAGTACCACCAAAGATTATGCTTGGGGTTTCGCTCAGCACGACCCTGGTGTAGATCAGGCCGATGGATCACCGCATTCCTCACAGGCGACTGTGGCGGTGGTCGCGTGGCAGCCTGCCGATGGGGCAACCCATCGGACGCCAAGCATATGACAGGGTGTGAAGAGCCTACTGAGCTACAAAGTATTCCTCCGGCCCCTGAATGCGGCTAATCCCAACCACGGAGCATTTGCTACCAAACCAGGTAGTGGAATGTCGTAACGGGTAACTCTGTGGCGGAACCGACTACTTTGGGTGTCCGTGTTTCCTTTTAATTTATCATTCTGTATATGGTGACAACTATAGTGCTATCTCGATTTGCATTACTATTGTTGAGATTAAAACTTTATTACATTGTTGCATTTTACCCTTTGAGTGAGTTTTCACCTGAACAGATTAATTTACTCATCCTGTTTATATATTACAAGCAGAAATACTTGCAAAG
modifications: lipid formulation; Enterovirus I
In the case of B6, the “Expression” value with HEK293 cells came to 1.31E+08.

B7: EV J 1631 (nucleic acid, listed as Enterovirus sp.)
chain: CACCCTGAGGGCCCACGTGGCGTAGTACTCTGGTATCAAGGTACCTTTGTACGCCTATTTTATTTCCCTTCCCCCACAGTAACTTAGAAGCTTATCTCATAGTTCAACAGTAGGGTCACTAACCAAGTGGCTCAGCGAACAAGCACTTCTGTTTCCCCGGTCCTAGTACCTGTGAAGCTGTACCCACGGCGGAAGGGGAAAAAGATCGTTATCCGGCCCCCTACTTCGGAAAGCCTAGTAACACCATTGAAGCAATCGAGTGTTGCGCTCAGCACAGTAACCCCTGTGTAGCTTTGGTTGATGAGTCTGGGCACTCCCCACTGGCGACAGCGGCCCAGGCTGCGTTGGCGGCCAACCGACTCGGGCAACCGGGTCGGACGCTCGTTTGTGGACATGGTGTGAAGAGCCTACTGAGCTAGAGGGTAGTCCTCCGGCCCCTGAATGCGGATAATCCTAACCCCGGAGCACCCACACTCAATCCAGAGTGCAGGATGTCGTAACGCGTAAGTCTGGGACGGAACCGACTACTTTGGGTGTCCGTGTTTCCTGTTTTACTTACTTTGGCTGCTTATGGTGACAATCTAGTGTTGTTACCATATAGCTATTGGATTGGCCATCCGGTGTTTTGAATTGTGTGTTTATACTAATTCTTTTACATATCACAGACAACCAAAT
modifications: lipid formulation
With B7, the “Expression” value in the data set on HEK293 cells is on record as 9.88E+07.

B8: EV F1 BEV 261 (nucleic acid, listed as Enterovirus sp.)
chain: GCAATGCTGCACCAGTGCACTGGTACGCTAGTACCTTTTCACGGAGTAGATGGTATCCCTTACCCCGGAACCTAGAAGATTGCACACAAACCGACCAATAGGCGCACCGCATCCAGCCGTGCAGCGGTCAAGCACTTCTGTCTCCCCGGTCTGTAAAGATCGTTATCCGCCCGACCCACTACGAAAAGCCTAGTAACTGGCCAAGTGAACGCGAAGTTGCGCTCCGCCACAACCCCAGTGGTAGCTCTGGAAGATGGGGCTCGCACCACCCCCGTGGTAACACGGTTGCCTGCCCGCGTGTGCTTCCGGGTTCGGTCTCGTGCCGTTCACTTCAACTTCACGCAACCAGCCAAGAGCCTATTGTGCTGGGACGGTTTTCCTCCGGGGCCGTGAATGCTGCTAATCCCAACCTCCGAGCGTGTGCGCACAATCCAGTGTTGCTACGTCGTAACGCGTAAGTTGGAGGCGGAACAGACTACTTTCGGTACCCCGTGTTTCCTCTCATTTTATTTAATATTTTATGGTGACAATTGTTGAGATTTGCGCTCTTGCAACGTTGCCATTGAATATTGGCTTATACTATTTGGTTGCCTTTTACAAAACCTCTGATATACCCAGTTCTTACATTGATCTGCTTGTTTTTCTCAATTTGAAGTATAGACTACAAATAGCAAA
modifications: lipid formulation
Regarding B8, the “Expression” value in the data set with HEK293 cells is 1.12E+07.
